In US20230391853A1 (FAPON BIOTECH, published 2023) one finds Kd, koff and kon data, which are given here for one molecule.

The term Kd denotes the equilibrium constant for the complex coming apart. Low readings indicate higher affinity, high ones lower affinity. What is called koff is the first-order rate constant of dissociation. What is called kon is the second-order rate constant of association. Read a high kon as faster complex formation.

For the experiment, the target named is T1, 2019-nCoV N protein antigen (2019-nCoV (novel coronavirus), UniProt P0DTC9 1-419).
T1 construct: Coated on plates in ELISA; in solution in the AMC sensor assay; also called N protein of the novel coronavirus; nucleocapsid protein (N protein)
Briefly: AMC sensor kinetics, antibody captured. The procedure:
Operational process: equilibrium was performed in buffer 1 (PBST) for 60 s, the antibody was cured in an antibody solution for 300 s, incubation was performed in buffer 2 (PBST) for 180 s, binding was performed in an antigen solution for 420 s, dissociation was performed in buffer 2 for 1200 s, sensor regeneration was performed with a 10 mM pH 1.69 GLY solution and buffer 3, and data were outputted. KD represents an equilibrium dissociation constant, that was, the affinity; kon represents the binding rate; and kdis represents the dissociation rate.

B1: WT (antibody, mouse IgG1, kappa, V domains shown)
VH: DVQLVESGGGLVQPGGSRKLSCAASGVTFSTFAMHWVRQAPEKGLEWVAYLNSASNLIYYADTLKGRFTISRDNPKNTLFLQMTSLRSEDTAMYYCTRHAMDYWGQGTSVTVSS
VL: DIVLTQSPASLAVSLGQRATISCKASQSIDYDGDSFMNWFQQKPGQPPKLLIYDASNVESGIPARFSGSGSGTDFTLNIHPVEEEDAATYYCQHSNEDPYTFGGGTKLEIKR
notes: also called VT; antibody in Embodiment 1
As to B1, binding was characterised by a dissociation constant (Kd) of 8.03 nM, the koff was 0.00141 s⁻¹ and the on-rate constant (kon) is 175000 M⁻¹ s⁻¹.
